# T1: ALK4 (Homo sapiens, UniProt P36896)
# T1 construct: endogenous in cells; host or cells: primary human naive CD4+ T cells from PBMCs
# T1 sequence (P36896 24-505): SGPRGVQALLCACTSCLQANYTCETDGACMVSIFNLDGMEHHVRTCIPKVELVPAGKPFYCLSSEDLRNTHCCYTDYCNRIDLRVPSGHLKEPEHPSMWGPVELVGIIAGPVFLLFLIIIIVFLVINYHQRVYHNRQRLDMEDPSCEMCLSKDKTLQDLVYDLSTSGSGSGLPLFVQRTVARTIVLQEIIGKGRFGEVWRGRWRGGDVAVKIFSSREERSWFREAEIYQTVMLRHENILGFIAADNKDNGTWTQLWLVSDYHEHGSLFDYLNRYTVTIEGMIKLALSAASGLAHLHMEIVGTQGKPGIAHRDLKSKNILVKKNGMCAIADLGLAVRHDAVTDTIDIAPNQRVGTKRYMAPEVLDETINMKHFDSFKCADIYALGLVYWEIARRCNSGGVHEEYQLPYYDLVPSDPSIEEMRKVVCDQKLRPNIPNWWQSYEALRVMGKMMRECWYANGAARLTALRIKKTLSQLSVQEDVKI
# B1: IL-12: recombinant human cytokine (protein, UniProt P29459 23-219; P29460 23-328, looked up)
# Interleukin-12 subunit alpha: RNLPVATPDPGMFPCLHHSQNLLRAVSNMLQKARQTLEFYPCTSEEIDHEDITKDKTSTVEACLPLELTKNESCLNSRETSFITNGSCLASRKTSFMMALCLSSIYEDLKMYQVEFKTMNAKLLMDPKRQIFLDQNMLAVIDELMQALNFNSETVPQKSSLEEPDFYKTKIKLCILLHAFRIRAVTIDRVMSYLNAS
# Interleukin-12 subunit beta: IWELKKDVYVVELDWYPDAPGEMVVLTCDTPEEDGITWTLDQSSEVLGSGKTLTIQVKEFGDAGQYTCHKGGEVLSHSLLLLHKKEDGIWSTDILKDQKEPKNKTFLRCEAKNYSGRFTCWWLTTISTDLTFSVKSSRGSSDPQGVTCGAATLSAERVRGDNKEYEYSVECQEDSACPAAEESLPIEVMVDAVHKLKYENYTSSFFIRDIIKPDPPKNLQLKPLKNSRQVEVSWEYPDTWSTPHSYFSLTFCVQVQGKSKREKKDRVFTDKTSATVICRKNASISVRAQDRYYSSSWSEWASVPCS
# B2: IL-23: recombinant human cytokine of the IL-12 cytokine family (protein, UniProt Q9NPF7 20-189; P29460 23-328, looked up)
# Interleukin-23 subunit alpha: RAVPGGSSPAWTQCQQLSQKLCTLAWSAHPLVGHMDLREEGDEETTNDVPHIQCGDGCDPQGLRDNSQFCLQRIHQGLIFYEKLLGSDIFTGEPSLLPDSPVGQLHASLLGLSQLLQPEGHHWETQQIPSLSPSQPWQRLLLRFKILRSLQAFVAVAARVFAHGAATLSP
# Interleukin-12 subunit beta: B1 Interleukin-12 subunit beta
# B3: product of the Inhibin beta A gene (INHBA): secreted recombinant protein from the secretomics collection; forms the cytokine activin A as a homodimer (protein, UniProt P08476 311-426, looked up)
# Inhibin beta A chain: GLECDGKVNICCKKQFFVSFKDIGWNDWIIAPSGYHANYCEGECPSHIAGTSGSSLSFHSTVINHYRMRGHSPFANLKSCCVPTKLRPMSMLYYDDGQNIIKKDIQNMIVEECGCS
# modifications: Inhibin beta A chain
# How the values were obtained:
# SMAD2/3 [1] = experiment: Analysis of phosphorylated SMAD2/3 in tonsil CD4 T cells; assay type: cell-based, human; conditions: tonsil naïve CD4 T cells, activin A+Galunisertib
# Description: (§1) Fresh PBMCs and tonsil mononuclear cells were serum-starved over night in AIM-V medium. […] Following stimulation, the cells were fixed in BD Phosflow™ Fix Buffer I (BD Biosciences), then permeabilized using BD Phosflow™ Perm Buffer III (BD Biosciences) following manufacture's instruction.
# ALK4 = target: T1, ALK4; experiment: SMAD2/3 inhibition experiments (ALK4 inhibitors) in Tfh differentiation; assay type: cell-based; conditions: activin A+IL-12, 5 days, vs vehicle (DMSO)
# SMAD2/3 [2] = experiment: Analysis of phosphorylated SMAD2/3 in blood naïve CD4 T cells; assay type: cell-based, human; conditions: activin A + SB 431542 (10 μM)
# Description: as §1
# human naïve CD4 T cells [3] = experiment: In vitro Tfh differentiation, PD-1 and CXCR5 expression by FACS; assay type: cell-based; conditions: for synergy with activin A on CXCR5 and PD-1 expression: IL-12 family cytokine added to activin A, serum-free conditions
# Experimental: (§2) For surface staining, primary-staining panels used for phenotypic analysis or for cell sorting known in the art were used. For the intranuclear staining: cells were treated with the FoxP3 Fixation/Permeabilization kit (eBioscience) and stained in Permeabilization buffer (eBioscience). For cytokine staining: day 3 or day 5 in vitro differentiated cells (specified in the main text or in figure legends) cells were stimulated for 5 hours at 37° C. with Phorbol 12-myristate 13-acetate (PMA, 25 ng/ml) and Ionomycin (1 μg/ml) in the presence of Brefeldin A (5 μg/ml). Cells were fixed with PBS 2% FBS, 1% PFA and permeabilized with PBS 2% FBS, 0.5% Saponin (from quillaja bark, Sigma-Aldrich). Samples were analyzed on a LSR Fortessa Cell Analyzer (BD, Bioscience). Flow cytometry data were analyzed with FlowJo (Tree Star). For cell sorting, cells were sorted using sorted using a FACS Aria (BD, Bioscience).
# Unless differently specified, naïve CD4^+ T cells were enriched from PBMCs by magnetic bead negative selection with the Naïve CD4^+ T Cell Isolation Kit (Stem Cell Technologies). Purity (CD4^+CD45RA^+) was 90% or higher. Cells (7.5×10^4 cells/well) were activated by Dynabeads Human T-Activator CD3/CD28 (2 μl/well, Life Technologies) and cultured with recombinant human/mouse/rat activin A (50 ng/ml or 100 ng/ml), recombinant human IL-12 (5 ng/ml), recombinant human TGFβ (1 ng/ml), recombinant human IL-23 (10 ng/ml) or recombinant human IL-35 (10 ng/ml) in the presence of and recombinant human IL-7 (4 ng/ml) in AIM-V medium (Life Technologies). All cytokines were from R&D System and Peprotech. The 14 kDa mature human beta A chain of human activin A shares 100% amino acid sequence identity with bovine, feline, mouse, porcine, and rat beta A. Phenotype was quantified after 3 or 5 days, as specified in the main text of Figure legends. Similar results were obtained when using Treg-depleted FACS sorted naïve CD4 T cells, in which cells were sorted from total PBMCs by flow cytometry as CD19^−CD8^−CD14^−CD16^− CD4^+CD45RO^−CD25^− cells. For experiments quantifying supernatant CXCL13 concentration, cells were activated by plate-bound anti-human CD3 (5 μg/ml, BD) and ICOS-L (5 μg/ml, recombinant human B7-H2, R&D). CXCL13 concentrations were determined via human CXCL13 DuoSet ELISA (R&D) on supernatants harvested after 5 days of in vitro culture. For blocking experiments, cells were cultured with anti-activin A blocking mAb (5 μg/ml, clone 69403, R&D), anti-TGFβ mAb (100 μg/ml, clone 1D11.16.8, BioXcell), or equivalent concentration of mouse IgG1 isotype mAb (BioXcell). For blockade of IL-2, cells were cultured with anti-IL-2 blocking mAb (10 μg/ml, clone 5334, R&D) or mouse IgG1 isotype mAb (BioXcell).
# human naïve CD4 T cells [4] = experiment: Intracellular cytokine staining after PMA/Ionomycin restimulation; assay type: cell-based; conditions: cells cultured with IL-12, PMA/Ionomycin re-stimulation
# Experimental: as §2
# [5] = tested on: autologous memory B cells; experiment: T-B co-culture, B cell help; assay type: cell-based, human; conditions: T-B co-cultures
# human naïve CD4 T cells [6] = experiment: Screening of secretomics recombinant proteins for Tfh marker induction; assay type: cell-based; conditions: secretomics protein screen, anti-CD3/CD28 beads, 5 days, automated FACS
# Experimental: FIG. 1A-D: Inhibin beta A (INHBA) emerged from the screen as potent regulator of human Tfh differentiation. (A) Schematic of primary screen. Purified human naïve CD4 T cells from a leukapheresis donor were stimulated by anti-CD3/CD28 beads on 384 well plates on day 0. The GNF secretomics recombinant proteins were added at the beginning of the stimulation. Each secretomics protein was tested in duplicate. After 5 days of in vitro culture, cells were evaluated by automated FACS analysis for the expression of Tfh signature markers, including CXCR5 and PD-1. (B) Primary screen results. Relative enrichment of PD-1^+CXCR5^+ cell induction is reported as Z score for each recombinant protein. INHBA gene product is shown in red. (C) CXCR5 and PD-1 expression from repeat experiment in which INHBA gene product was tested again for its capacity to induce Tfh-like differentiation. (D) Confocal microscopy of INHBA expression in human tonsils. Tonsil sections were stained with anti-INHBA (red) anti-BCL6 (blue) and anti-CD3 (green) Abs. An overlay from one donor representative of six is shown on the left panel. […]
# Naïve CD4^+ T cells were isolated from leukapheresis-derived mononuclear cells via CliniMACS negative selection (Miltenyi Biotec). […] Induction of CXCR5 and PD-1 was assessed after 5 days of in vitro culture using automated FACS acquisition via HTS on LSR Fortessa (BD Biosciences). For each 384 well plate, mean and standard deviation of PD-1^+CXCR5^+ cell frequency induced by each individual recombinant proteins was determined and used to calculate the Z score. Z scores of replicate plates were analyzed independently.
# To discover novel regulators of human Tfh cell differentiation, we performed an unbiased high throughput screen of a human extracellular proteome library consisting of over 2000 human proteins predicted or known to be cytokines, chemokines, morphogens, costimulatory receptors, or single pass transmembrane molecules^19. […] Following 5 days, expression of the Tfh signature markers CXCR5 and PD-1 were measured on the cells by flow cytometry, in an automated fashion. […]
molecule,measurement,setting,value
"Cc1cccc(-c2nn3c(c2-c2ccnc4ccc(C(N)=O)cc24)CCC3)n1 [Galunisertib, reference compound]",inhibition of activin A-induced SMAD2/3 phosphorylation,SMAD2/3 [1],abolished
same,suppression of PD-1+CXCR5+ cell generation in response to activin A,ALK4,potent suppression
"NC(=O)c1ccc(-c2nc(-c3ccc4c(c3)OCO4)c(-c3ccccn3)[nH]2)cc1 [SB 431542, reference compound]",reduction of activin A-mediated SMAD2/3 phosphorylation,SMAD2/3 [2],strong reduction
B1,synergy with activin A on CXCR5 and PD-1 expression,human naïve CD4 T cells [3],enhanced
same,IL-21 production,human naïve CD4 T cells [4],capable of producing IL-21
same,contribution to B cell helper activity of in vitro differentiated Tfh cells,[5],driven entirely by IL-12
B2,"synergy with TGFβ or activin A, induction of CXCR5+ or CXCR5+PD1+ cells","human naïve CD4 T cells [3]; FIG. 15, interleukin combined with TGFβ or activin A",synergizes with TGFβ or activin A but less potently than IL-12
same,synergy with activin A on CXCR5 and PD-1 expression,human naïve CD4 T cells [3],modest but detectable synergistic activity with activin A
B3,induction of CXCR5 and PD-1 expression (PD-1+CXCR5+ cells),human naïve CD4 T cells [6],most potent inducer of CXCR5 and PD-1
